“And” between values parts separate entries of the source, which are not always exact repeats. Equal values may be shown once.
Molecular target: the molecule itself
Assay: cryo-EM structure

B1: mouse bestrophin 1 with a C-terminal tandem tag of BRIL and 3X Flag (mBEST1-BRIL-3xFLAG) (natural protein, UniProt O88870 1-551, looked up)
chain: MTITYTNKVANARLGSFSSLLLCWRGSIYKLLYGEFLVFIFLYYSIRGLYRMVLSSDQQLLFEKLALYCDSYIQLIPISFVLGFYVTLVVSRWWSQYENLPWPDRLMIQVSSFVEGKDEEGRLLRRTLIRYAILGQVLILRSISTSVYKRFPTLHHLVLAGFMTHGEHKQLQKLGLPHNTFWVPWVWFANLSMKAYLGGRIRDTVLLQSLMNEVCTLRTQCGQLYAYDWISIPLVYTQVVTVAVYSFFLACLIGRQFLNPNKDYPGHEMDLVVPVFTILQFLFYMGWLKVAEQLINPFGEDDDDFETNWIIDRNLQVSLLSVDGMHQNLPPMERDMYWNEAAPQPPYTAASARSRRHSFMGSTFNISLKKEDLELWSKEEADTDKKESGYSSTIGCFLGLQPKNYHLPLKDLKTKLLCSKNPLLEGQCKDANQKNQKDVWKFKGLDFLKCVPRFKRRGSHCGPQAPSSHPTEQSAPSSSDTGDGPSTDYQEICHMKKKTVEFNLNIPESPTEHLQQRRLDQMSTNIQALMKEHAESYPYRDEAGTKPVLYE
  stoichiometry N: 5 and 10
